Measured values taken from patent publication US20220119513A1 (ZOETIS SERVICES, published 2022).
Where a chain is given by its changes, count along the chain named. Names may count otherwise.

T1: TGFβ2 (R&D Systems)
T1 construct: also called TGFB2
T1 sequence (P61812 303-414, species assumed, looked up): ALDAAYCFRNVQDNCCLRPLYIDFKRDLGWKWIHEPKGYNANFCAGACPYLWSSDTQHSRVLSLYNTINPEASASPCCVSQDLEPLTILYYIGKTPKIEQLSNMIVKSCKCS

T2: TGFβ3 (R&D Systems) (Homo sapiens (Human), UniProt P10600 301-412, Active TGFβ3 is a disulfide-linked homodimer of this chain; one copy is given.)
T2 construct: also called TGFB3
T2 sequence: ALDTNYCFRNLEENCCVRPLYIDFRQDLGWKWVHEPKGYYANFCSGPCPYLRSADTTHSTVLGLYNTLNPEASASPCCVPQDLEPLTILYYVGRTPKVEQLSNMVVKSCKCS

B1: Can-SL501-VH3 Y111V / Can-SL501-VL2 (antibody, V domains shown)
VH: EVQLVESGGDLVKPGGSLRLSCVASGFTFSSYGMHWVRQAPGKELEWVAVISYDGSIKYYADAVKGRFTISRDNAKNTLYLQMNSLRAEDTAVYYCARTGEYSGYDTDPQVSWGQGTTVTVSS
VL: EIVMTQSPGSLAGSAGESVSINCRASQGIGDDLGWYQQKPGERPKLLIYGTSTLQSGVPARFSSSGSGTDFTLTINNLQAEDVGDYYCLQDSNYPLTFGAGTK
B2: Can-SL501-VH3 S112L / Can-SL501-VL2 (antibody, V domains shown)
VH: B1 VH with V111Y, S112L
VL: B1 VL
B3: Can-SL501-VH3 S112G / Can-SL501-VL2 (antibody, V domains shown)
VH: B1 VH with V111Y, S112G
VL: B1 VL
B4: Can-SL501-VH3 S112N / Can-SL501-VL2 (antibody, V domains shown)
VH: B1 VH with V111Y, S112N
VL: B1 VL
B5: Can-SL501-VH3 S112P / Can-SL501-VL2 (antibody, V domains shown)
VH: B1 VH with V111Y, S112P
VL: B1 VL
B6: Can-SL501-VH3 S112A / Can-SL501-VL2 (antibody, V domains shown)
VH: B1 VH with V111Y, S112A
VL: B1 VL
B7: Can-SL501-VH3 S112T / Can-SL501-VL2 (antibody, V domains shown)
VH: B1 VH with V111Y, S112T
VL: B1 VL
B8: affinity matured HcLb 269 (antibody, V domains shown)
VH: EVQLVQSGAEVKKPGASVKVSCKTSGYTFMTYWMNWVRQAPGAGLDWMGQIFPAWGMTNYNEMFEGRVTLTADTSTSTAYMELSSLRAGDIAVYYCARGYGNYALDAMDYWGQGTLVTVSS
VL: DIVMTQTPPSLSVSPRETASISCRASESVDSYGNSFMHWYLQKPGQSPQLLIYLASNLESGVSDRFSGSGSGTDFTLRISRVEANDTGVYYCQQNDEDPLSFGQGTK
notes: full IgG; also called canHcLb/55SW/100DY/57SM/30IM + canHcLb/237ND/242TS
B9: affinity matured HcLb 187 (antibody, V domains shown)
VH: B8 VH with M30I, A54G, W55S, M57S
VL: DIVMTQTPPSLSVSPRETASISCRASESVDSYGNSFMHWYLQKPGQSPQLLIYLASNLESGVSDRFSGSGSGTDFTLRISRVEANDTGVYYCQQNNEDPLTFGQ
B10: affinity matured HcLb 73 (antibody, V domains shown)
VH: B8 VH with M30I, W55S, M57S
VL: B8 VL with S101T
B11: affinity matured HcLb 270 (antibody, V domains shown)
VH: B8 VH
VL: B8 VL
notes: full IgG; also called canHcLb/55SW/100DY/57SV/30IM + canHcLb/237ND/242TS
B12: affinity matured HcLb 188 (antibody, V domains shown)
VH: B8 VH with M30I, M57S
VL: B9 VL
notes: full IgG; constant regions not restated
B13: affinity matured HcLb 27 (antibody, V domains shown)
VH: B8 VH with M30I, W55S, M57S
VL: B9 VL
B14: affinity matured HcLb 237 (antibody, V domains shown)
VH: B8 VH with M30I, M57V
VL: B8 VL
notes: full IgG; also called canHcLb/55SW/100DY/57/SV + canHcLb/237ND/242TS
B15: affinity matured HcLb 190 (antibody, V domains shown)
VH: B8 VH with M30I, A54G, W55S, M57S
VL: B8 VL
B16: affinity matured HcLb 91 (antibody, V domains shown)
VH: B8 VH with M30I, M57S, Y100D
VL: B9 VL
B17: affinity matured HcLb 233 (antibody, V domains shown)
VH: B8 VH with M30I
VL: B8 VL
notes: full IgG; also called canHcLb/55SW/100DY/57/SM + canHcLb/237ND/242TS
B18: affinity matured HcLb 275 (antibody, V domains shown)
VH: B8 VH with T28K, M30W, T31F
VL: B8 VL
notes: full IgG; also called canHcLb/55SW/100DY/57SM/30IW/31TF/28TK + canHcLb/237ND/242TS
B19: affinity matured HcLb 239 (antibody, V domains shown)
VH: B8 VH with M30I, T31K, M57S
VL: B8 VL
notes: full IgG; also called canHcLb/55SW/100DY/31/TK + canHcLb/237ND/242TS
B20: affinity matured HcLb 271 (antibody, V domains shown)
VH: B8 VH with T31F
VL: B8 VL
notes: full IgG; also called canHcLb/55SW/100DY/57SM/30IM/31TF + canHcLb/237ND/242TS
B21: affinity matured HcLb 265 (antibody, V domains shown)
VH: B8 VH with T31K
VL: B8 VL
notes: full IgG; also called canHcLb/55SW/100DY/30IM/31TK/57SM + canHcLb/237ND/242TS
B22: affinity matured HcLb 268 (antibody, V domains shown)
VH: B8 VH with T28I, T31K
VL: B9 VL
notes: as for B12
B23: affinity matured HcLb 189 (antibody, V domains shown)
VH: B8 VH with M30I, M57S
VL: B8 VL
notes: full IgG; also called canHcLb/S55W/D100Y + canHcLb/237ND/242TS
B24: affinity matured HcLb 257 (antibody, V domains shown)
VH: B8 VH with T31K, M57S
VL: B8 VL
notes: full IgG; also called canHcLb/55SW/100DY/30IM/31TK + canHcLb/237ND/242TS
B25: affinity matured HcLb 266 (antibody, V domains shown)
VH: B8 VH with T28I, T31K
VL: B8 VL
notes: full IgG; also called canHcLb/55SW/100DY/30IM/31TK/28TI/57SM + canHcLb/237ND/242TS
B26: affinity matured HcLb 205 (antibody, V domains shown)
VH: B8 VH with T28I, M30I, M57S
VL: B8 VL
notes: full IgG; also called canHcLb/S55W/D100Y/T28/I + canHcLb/237ND/242TS
B27: affinity matured HcLb 272 (antibody, V domains shown)
VH: B8 VH with T28K, T31F
VL: B8 VL
notes: full IgG; also called canHcLb/55SW/100DY/57SM/30IM/31TF/28TK + canHcLb/237ND/242TS
B28: affinity matured HcLb 258 (antibody, V domains shown)
VH: B8 VH with T31K, M57S
VL: B9 VL
notes: as for B12
B29: affinity matured HcLb 217 (antibody, V domains shown)
VH: B8 VH with M57S
VL: B8 VL
notes: full IgG; also called canHcLb/S55W/D100Y/I30/M + canHcLb/237ND/242TS
B30: affinity matured HcLb 267 (antibody, V domains shown)
VH: B8 VH with T28I, T31K, M57S
VL: B9 VL
notes: as for B12
B31: affinity matured HcLb 264 (antibody, V domains shown)
VH: B8 VH with T28I, T31K, M57S
VL: B8 VL
notes: full IgG; also called canHcLb/55SW/100DY/30IM/31TK/28TI + canHcLb/237ND/242TS

Legend:
TGFβ1 (R&D Systems) [1] = target: T3, TGFβ1 (R&D Systems); assay: single point SPR
T3 construct: also called TGFB1
T3 sequence (P01137 279-390): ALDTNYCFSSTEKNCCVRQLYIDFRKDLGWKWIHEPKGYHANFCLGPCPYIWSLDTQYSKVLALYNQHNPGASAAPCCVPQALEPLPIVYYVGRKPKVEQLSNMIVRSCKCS

TGFβ1 (R&D Systems) [2] = target: T3, TGFβ1 (R&D Systems); assay: SPR full titration
TGFβ2 (R&D Systems) [3] = target: T1, TGFβ2 (R&D Systems); assay: SPR full titration
TGFβ3 (R&D Systems) [4] = target: T2, TGFβ3 (R&D Systems); assay: SPR full titration
TGFβ1 (R&D Systems) [5] = target: T3, TGFβ1 (R&D Systems); assay: cell-based or functional assay
TGFβ2 (R&D Systems) [6] = target: T1, TGFβ2 (R&D Systems); assay: cell-based or functional assay
TGFβ3 (R&D Systems) [7] = target: T2, TGFβ3 (R&D Systems); assay: cell-based or functional assay

Binder | Kd (TGFβ1 (R&D Systems) [1]) [nM] | Kd (TGFβ1 (R&D Systems) [2]) [nM] | Kd (TGFβ2 (R&D Systems) [3]) [nM] | Kd (TGFβ3 (R&D Systems) [4]) [nM] | pSmad-3, IC50 (TGFβ1 (R&D Systems) [5]) [nM] | pSmad-3, IC50 (TGFβ2 (R&D Systems) [6]) [nM] | pSmad-3, IC50 (TGFβ3 (R&D Systems) [7]) [nM]
B1 | 0.93 | – | – | – | – | – | –
B2 | 6.97 | – | – | – | – | – | –
B3 | 0.762 | – | – | – | – | – | –
B4 | 3.4 | – | – | – | – | – | –
B5 | 2.8 | – | – | – | – | – | –
B6 | 0.877 | – | – | – | – | – | –
B7 | 3.51 | – | – | – | – | – | –
B8 | – | 4.4 | 3.05 | 0.99 | – | – | –
B9 | – | – | – | – | 0.82 | 2.08 | 8.61
B10 | – | – | – | – | 1.17 | 8.42 | 1.24
B11 | – | – | – | 1.19 | – | – | –
B12 | – | 3.96 | 0.937 | 0.417 | 2.73 | 2.29 | 1.46
B13 | – | – | – | – | 1.43 | 8.24 | 1.7
B14 | – | 2.27 | 4.07 | 0.476 | 0.76 | 1.6 | 1.05
B15 | – | – | – | – | 3.26 | 2.77 | 7.79
B16 | – | – | – | – | 2.16 | 4.43 | 2.31

Binder | Kd (TGFβ1 (R&D Systems) [1]) [nM] | Kd (TGFβ1 (R&D Systems) [2]) [nM] | Kd (TGFβ2 (R&D Systems) [3]) [nM] | Kd (TGFβ3 (R&D Systems) [4]) [nM] | pSmad-3, IC50 (TGFβ1 (R&D Systems) [5]) [nM] | pSmad-3, IC50 (TGFβ2 (R&D Systems) [6]) [nM] | pSmad-3, IC50 (TGFβ3 (R&D Systems) [7]) [nM]
B17 | – | 2.03 | 3.98 | 0.457 | 0.71 | 1.68 | 1.33
B18 | – | 2.39 | 2.91 | 0.824 | – | – | –
B19 | – | 3.53 | 6.44 | 0.431 | 1.43 | 5.42 | 1.54
B20 | – | 2.3 | 1.28 | 0.957 | – | – | –
B21 | – | 3.24 | 2.82 | 0.7 | – | – | –
B22 | – | 5.34 | 3.96 | 1.03 | – | – | –
B23 | – | 2.65 | 0.922 | 0.226 | 2.21 | 3.29 | 2.13
B24 | – | 2.03 | 4.72 | 0.649 | 0.7 | 2.02 | 1.6
B25 | – | 2.4 | 2.9 | 0.453 | – | – | –
B26 | – | 1.78 | 2.09 | 0.005 | – | – | –
B27 | – | 2.39 | 2.02 | 0.895 | – | – | –
B28 | – | 3.81 | 4.4 | 8.6 | 0.61 | 0.79 | 1.09
B29 | – | 2.58 | 3.91 | 0.676 | 0.78 | 1.71 | 1.44
B30 | – | 5.1 | 3.77 | 1.01 | – | – | –
B31 | – | 2.69 | 3.89 | 3.75 | – | – | –
